Test results reported in US20170204167A1.

B1: FI28 variant 1 (antibody, V domains shown)
VH: EVQLVESGGGAVQPGESLKLSCAASGFTFSNYGMHWVRQAPGKGLEWVAVISYDGSNKYYADSVKGRFTISRDNSKDTLYLQMNSLRAEDTALFYCAKERPLRLLRYFDWLSGGANDYWGQGTLVTVSS
VL: DIVMTQSPDSLAVSLGERATINCKSSQSVLYSSNNKNYLAWYQQKPGQPPKLLIDWASTRESGVPDRFSGSGSGTDFTLTISNLQVEDVAVYYCQQYYRSPSFGQGTKLEIK
B2: FI6 variant 2 (antibody, V domains shown)
VH: QVQLVQSGGGVVQPGRSLRLSCVASGFTFSTYAMHWVRQAPGRGLEWVAVISYDGNYKYYADSVKGRFSISRDNSNNTLHLEMNTLRTEDTALYYCAKDSQLRSLLYFEWLSQGYFDPWGQGTLVTVTS
VL: DIQMTQSPDSLAVSLGARATINCKSSQSVTFNYKNYLAWYQQKPGQPPKVLIYWASARESGVPDRFSGSGSGTDFTLTISSLQAEDVAVYYCQQHYRTPPTFGQGTKVEIK

Legend:
[1] = target: HA of H9 A/HK/1073/99 (influenza A virus H9N2 A/Hong Kong/1073/99); test: ELISA on HA
[2] = target: HA of H5N1 A/Viet Nam/1203/04 (influenza A virus H5N1 A/Viet Nam/1203/04); test: ELISA on HA
[3] = target: HA of H5N1 A/Viet Nam/1203/04 (influenza A virus H5N1 A/Viet Nam/1203/04); test: cell-based or functional assay
[4] = target: HA of H7N3 A/Canada/444/04 (influenza A virus H7N3 A/Canada/444/04); test: ELISA on recombinant or purified HA
[5] = target: HA of H5N1 A/Viet Nam/1/05 (influenza A virus H5N1 A/Viet Nam/1/05); test: ELISA on recombinant or purified HA
[6] = target: HA of H8N4 A/Alberta/357/84 (influenza A virus H8N4 A/Alberta/357/84); test: ELISA on recombinant or purified HA
[7] = target: HA of H6N5 A/shearwater/Australia/1/72 (influenza A virus H6N5 A/shearwater/Australia/1/72); test: ELISA on recombinant or purified HA
[8] = target: HA of H9 A/HK/1073/99 (influenza A virus H9N2 A/Hong Kong/1073/99); test: ELISA on recombinant or purified HA
[9] = target: HA of H5N1 A/Viet Nam/1203/04 (influenza A virus H5N1 A/Viet Nam/1203/04); test: ELISA on recombinant or purified HA
[10] = target: HA of H10N4 A/mink/Sweded/3900/84 (influenza A virus H10N4 A/mink/Sweded/3900/84); test: ELISA on recombinant or purified HA
[11] = target: H7-HA (Table 7) (influenza A virus, H7 subtype, strain not stated); test: ELISA on baculovirus-derived recombinant HA
[12] = target: H5-HA (Table 7) (influenza A virus, H5 subtype, strain not stated); test: ELISA on baculovirus-derived recombinant HA

Row | Binder | Binding to HA by ELISA (% of subtype specific control antibodies) [1] [%] | Binding to HA by ELISA (% of subtype specific control antibodies) [2] [%] | Neutralization of HA-pseudotypes (IC90, µg/ml) [3] [µg/mL] | EC50 [4] [µg/mL] | EC50 [5] [µg/mL] | EC50 [6] [µg/mL] | EC50 [7] [µg/mL] | EC50 [8] [µg/mL] | EC50 [9] [µg/mL] | EC50 [10] [µg/mL] | EC50 [11] [µg/mL] | EC50 [12] [µg/mL]
1 | B1 | 87.7 | 46.3 | 0.02 |  |  |  |  |  |  |  |  | 
2 | B2 | 98.7 | 73.7 | 0.02 | 0.033 | 0.01 | 0.033 | 0.041 | 0.014 | 0.014 | 0.09 | 0.0314 | 0.0145
